Test results from the supplement of paper PMC12338614.
± gives the uncertainty stated by the source.

B1: library; numbered along this chain (parent)
chain: MEVVDPQQLGMFTEGELMSVGMDTFIHRIDSTEVIYQPRRKRAKLIGKYLMGDLLGEGSYGKVKEVLDSETLCRRAVKILKKKKLRRIPNGEANVKKEIQLLRRLRHKNVIQLVDVLYNEEKQKMYMVMEYCVCGMQEMLDSVPEKRFPVCQAHGYFCQLIDGLEYLHSQGIVHKDIKPGNLLLTTGGTLKISDLGVAEALHPFAADDTCRTSQGSPAFQPPEIANGLDTFSGFKVDIWSAGVTLYNITTGLYPFEGDNIYKLFENIGKGSYAIPGDCGPPLSDLLKGMLEYEPAKRFSIRQIRQHSWFRKKHPPAEAPVPIPPSPDTKDRWRSMTVVPYLEDLHGADEDEDLFDIEDDIIYTQDFTVPGQVPEEEASHNGQRRGLPKAVCMNGTEAAQLSTKSRAEGRAPNPARKACSASSKIRRLSACKQQ

Variants of: B1
Assay: STK11 functional score (HeLa growth suppression), rescaled enrichment; synonymous median = 1, nonsense median = 0 (normalised score)
Conditions: with HeLa; variant type: missense
Description: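 Deep mutational scan (TileSeq/POPCode codon randomisation) of full-length codon-optimised STK11 cDNA integrated at a Bxb1 landing pad (AAVS1) in HeLa cells. Restoring functional STK11 suppresses HeLa proliferation. Variant frequencies were measured by NGS before and after about two weeks of growth. The error-corrected enrichment log-ratio was rescaled so that synonymous median = 1 and nonsense median = 0, scores above 1 were compressed, and codon-level and three biological replicate scores were combined; error is the bootstrapped standard error. Scale: synonymous median = 1, nonsense median = 0; below 0.5 = damaging.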

Variant	STK11 functional score
MEVVDPQQLGMFTEGELMSVGMDTFIHRIDSTEVIYQPRRKRAKLIGKYAMGDLLGEGSYGKVKEVLDSETLCRRAVKILKKKKLRRIPNGEANVKKEIQLLRRLRHKNVIQLVDVLYNEEKQKMYMVMEYCVCGMQEMLDSVPEKRFPVCQAHGYFCQLIDGLEYLHSQGIVHKDIKPGNLLLTTGGTLKISDLGVAEALHPFAADDTCRTSQGSPAFQPPEIANGLDTFSGFKVDIWSAGVTLYNITTGLYPFEGDNIYKLFENIGKGSYAIPGDCGPPLSDLLKGMLEYEPAKRFSIRQIRQHSWFRKKHPPAEAPVPIPPSPDTKDRWRSMTVVPYLEDLHGADEDEDLFDIEDDIIYTQDFTVPGQVPEEEASHNGQRRGLPKAVCMNGTEAAQLSTKSRAEGRAPNPARKACSASSKIRRLSACKQQ [L50A]	1.52 ± 0.24
MEVVDPQQLGMFTEGELMSVGMDTFIHRIDSTEVIYQPRRKRAKLIGKYLMGDLLGEGSYGKVKEVLDSETLCRRAVKILKKKKLRRIPNGEANVKKEIQLLRRLRHKNVIQLVDVLYNEEKQKMYMVMEYCVCGMQEMLDSVPEKRFPVCQAHGYFCQLIDGLEYLHSQGIVHKDIKPGNLLLTTGGTLKISDLGVAEALHPFGADDTCRTSQGSPAFQPPEIANGLDTFSGFKVDIWSAGVTLYNITTGLYPFEGDNIYKLFENIGKGSYAIPGDCGPPLSDLLKGMLEYEPAKRFSIRQIRQHSWFRKKHPPAEAPVPIPPSPDTKDRWRSMTVVPYLEDLHGADEDEDLFDIEDDIIYTQDFTVPGQVPEEEASHNGQRRGLPKAVCMNGTEAAQLSTKSRAEGRAPNPARKACSASSKIRRLSACKQQ [A205G]	0.712 ± 0.3
MEVVDPQQLGMFTEGELMSVGMDTFIHRIDSTEVIYQPRRKRAKLIGKYLMGDLLGEGSYGKVKEVLDSETLCRRAVKILKKKKLRRIPNGEANVKKEIQLLRRLRHKNVIQLVDVLYNEEKQKMYMVMEYCVCGMQEMLDSVPEKRFPVCQAHGYFCQLIDGLEYLHSQGIVHKDIKPGNLLLTTGGTLKISDLGVAEALHPFAADDTCRTSQGSPAFQPPEIANGLDTFSGFKVDIWSAGVTLYNITTGLYPFEGDNIYKLFENIGKGSYAIPGDCGPPLSDLLKGMLEYEDAKRFSIRQIRQHSWFRKKHPPAEAPVPIPPSPDTKDRWRSMTVVPYLEDLHGADEDEDLFDIEDDIIYTQDFTVPGQVPEEEASHNGQRRGLPKAVCMNGTEAAQLSTKSRAEGRAPNPARKACSASSKIRRLSACKQQ [P294D]	0.708 ± 0.1
MEVVDPQQLGMFTEGELMSVGMDTFIHRIDSTEVIYQPRRKRAKLIGKYLMGDLLGEGSYGKVKEVLDSETLCRRAVKILKKKKLRRIPNGEANVKKEIQLLRRLRHKNVIQLVDVLYNEEKQKMYMVMEYCVCGMQEMLDSVPEKRFPVCQAHGYFCQLIDGLEYLHSQGIVHKDIKPGNLLLTTGGTLKISDLGVAEALHPFAADDTCRTSQGSPAFQPPEIANGLDTFSGFKVDIWSAGVTLYNITTGLYPFEGDNEYKLFENIGKGSYAIPGDCGPPLSDLLKGMLEYEPAKRFSIRQIRQHSWFRKKHPPAEAPVPIPPSPDTKDRWRSMTVVPYLEDLHGADEDEDLFDIEDDIIYTQDFTVPGQVPEEEASHNGQRRGLPKAVCMNGTEAAQLSTKSRAEGRAPNPARKACSASSKIRRLSACKQQ [I260E]	-0.179 ± 0.42
MEVVDPQQLGMFTEGELMSVGMDTFIHRIDSTEVIYQPRRKRAKLIGKYLMGDLLGEGSYGKVKEVLDSETLCRRAVKILKKKKLRRIPNGEANVKKEIQLLRRLRHKNVIQLVDVLYNEEKQKMYMVMEYCVCGMQEMLDSVPEKRFPVCQAHGYFCQLIDGLEYLHSQGIVHKDIKPGNLLLTTGGTLKISDLGVAEALHPFAADDTCRTSQGSPAFQPPEIANGLDTFSGFKVDIWSAGVTLYNITTGLYPFEGDNIYKLFENIGKGSYAIPGDCGPPLSDLLKGMLEYEPAKRFSIRQIRQHSWFRKKHPPAEAPVPIPPSPDTKDRWRSMTVVPYLEDLHGADEDEDLFDIEDDIIYTQDFTVPGQVPEEEASHNGQRRGLPKAVCMTGTEAAQLSTKSRAEGRAPNPARKACSASSKIRRLSACKQQ [N393T]	1.48 ± 0.36
MEVVDPQQLGMFTEGELMSVGMDTFIHRIDSTEVIYQPRRKRAKLIGKYLMGDLLGEGSYGKVKEVLDSETLCRRAVKILKKKKLRRIPNGEANVKKEIQLLRRLRHKNVIQLVDVLYNEEKQKMYMVMEYCVCGMQEMLDSVPEKRFPVCQAHGYFCQLIDGLEYLHSQGIVHKDIKPGNLLLTTGGTLKISDLGVAEALHPFAADDTCRTSQGSPAFQPPEIANGLDTFSGFKVDIWSAGVTLYNITTGLYPFEGDNIYKLFENIGKGSYAIPGDCGPPLSDLLKGMLEYEPAKRFSIRQIRQHSWFRKKHPPAEAPVPIPPSPDTKDRWRSMTVVPYLEDLHGADEDEDLFDIEDDIIYTQDFTVPGQVPEEEASHNGQRRGLPKAVCMNGTEAAQLSTKSRAEGRRPNPARKACSASSKIRRLSACKQQ [A410R]	1.6 ± 0.14
MEVVDPQQLGMFTEGELMSVGMDTFIHRIDSTEVIYQPRRKRAKLIGKYLMGDLLGEGSYGKVKEVLDSETLCRRAVKILKKKKLRRIPNGEANVKKEIQLLRRLRHKNVIQLVDVLYNEEKQKMYMVMEYCVCGMQEMLDSVPEKRFPVCQAHGYFCQLIDGLEYLHSQGIVHKDIKPGNLLLTTGGTLKISDLGVAEALHPFAADDTCRTSQGSPAFQPPEIANGLDTFSGFKVDIWSAGVTPYNITTGLYPFEGDNIYKLFENIGKGSYAIPGDCGPPLSDLLKGMLEYEPAKRFSIRQIRQHSWFRKKHPPAEAPVPIPPSPDTKDRWRSMTVVPYLEDLHGADEDEDLFDIEDDIIYTQDFTVPGQVPEEEASHNGQRRGLPKAVCMNGTEAAQLSTKSRAEGRAPNPARKACSASSKIRRLSACKQQ [L245P]	-0.14 ± 0.1
MEVVDPQQLGMFTEGELMSVGMDTFIHRIDSTEVIYQPRRKRAKLIGKYLMGDLLGEGSYGKVKEVLDSETLCRRAVKILKKKKLRRIPNGEANVKKEIQLLRRLRHKNVIQLVDVLYNEEKQKMYMVMEYCVCGMQEMLDSVPEKRFPVCQAHGYFCQLIDGLEYLHSQGIVHKDIKPGNLLLTTGGTLKISDLGVAEALHPFAADDTCRTSQGSPAFQPPEIANGLDTFSGFKVDIWSAGVTLYNITTGLYPFEGDNIYKLFENIGKGSYAIPGDCGPPLSDLLKGMLEYEPAKRFSIRQIRQHSWFRKKHPPAEAPVPIPPSPDTKDRWRSMTVVPYLEDLHGADEDEDLFDIEDDIIYTQDFTVPGQVPEEEASHNGQRRNLPKAVCMNGTEAAQLSTKSRAEGRAPNPARKACSASSKIRRLSACKQQ [G385N]	1.59 ± 0.27
MEVVDPQQLGMFTEGELMSVGMDTFIHRIDSTEVIYQPRRKRAKLIGKYLMGDLLGEGSYGKVKEVLDSVTLCRRAVKILKKKKLRRIPNGEANVKKEIQLLRRLRHKNVIQLVDVLYNEEKQKMYMVMEYCVCGMQEMLDSVPEKRFPVCQAHGYFCQLIDGLEYLHSQGIVHKDIKPGNLLLTTGGTLKISDLGVAEALHPFAADDTCRTSQGSPAFQPPEIANGLDTFSGFKVDIWSAGVTLYNITTGLYPFEGDNIYKLFENIGKGSYAIPGDCGPPLSDLLKGMLEYEPAKRFSIRQIRQHSWFRKKHPPAEAPVPIPPSPDTKDRWRSMTVVPYLEDLHGADEDEDLFDIEDDIIYTQDFTVPGQVPEEEASHNGQRRGLPKAVCMNGTEAAQLSTKSRAEGRAPNPARKACSASSKIRRLSACKQQ [E70V]	1.28 ± 0.39
MEVVDPQQLGMFTEGELMSVGMDTFIHRIDSTEVIYQPRRKRAKLIGKYLMGDLLGEGSYGKVKEVLDSETLCRRAVKILKKKKLRRIPNGEANVKKEIQLLRRLRHKNVIQLVDVLYNEEKQKMYMVMEYCVCGMQEMLDSVPEKRFPVCQAHGYFCQLIDGLEYLHSQGIVHKDIKPGNLLLTTGGTLKISDLGVAEALHPFAADDTCRTSQGSPAFQPPEIANGLDTFSGFKVDIWSAGVTLYNITTGLYPFEGDNIYKLFENIGKGSYAIPGDCGPPLSDLLKGMLEYEPAKRFSIRQIRQHSWFRKKHPPAEAPVPIPPSPDTKDRWRSMTVVPYLEDLHGADEDEDLFDIEDDIIYTQDFTVPGQVPEEEASHNGQRRGLPKAVCMNGREAAQLSTKSRAEGRAPNPARKACSASSKIRRLSACKQQ [T395R]	1.58 ± 0.28
MEVVDPQQLGMFTEGELMSVGMDTFIHRIDSTEVIYQPRRKRAKLIGKYLMGDLLGEGSYGKVKEVLDSETLCRRAVKILKKKKLRRIPNGEANVKKEIQLLRRLRHKNVIQLVDVLYNEEKQKMYMVMEYCVCGMQEMLDSVPEKRFPVCQAHGYFCQLIDGLEYLHSQGIVHKDIKPGNLLLTTGGTLKISDLGVAEALHPFAADDTCRTSQGSPAFQPPEIANGLDTFSGFKVDIWSAGVTLYNITTGLYPFEGDNIYKLFENIGKGSYAIPGDCGPPLSDLLKGMLEYEPAKRFSIRQIRQHSWFRKKHPPAEAPVPIPPSPDTKDRWRSMTVVPYLEDLHGADEDEDLFDIEDDIIYTQDFTVPGQVPEEEASHNGQRRGLPKAVCMNGTEAAQLSTKSRAEGRAPNPARKDCSASSKIRRLSACKQQ [A417D]	1.41 ± 0.36
MEVVDPQQLGMFTEGELMSVGMDTFIHRIDSTEVIYQPRRKRAKLIGKYLMGDLLGEGSYGKVKEVLDSETLCRRAVKILKKKKLRRIPNGEANVKKEIQLLRRLRHKNVIQLVDVLYNEEKQKMYMVMEYCVCGMQEMLDSVPEKRFPVCQAHGYFCQLIDGLEYLHSQGIVHKDIKPGNLLLTTGGTLKISDLGVAEALHPFAADDTCRTSQGSPAFQPPEIANGLDTFSGFKVDIWSAGVTLYNITTGLYPFEGDNIYKLFENIGKGSYAIPGDCGPPLSDLLKGMLEYEPAKRFSIRQIRQHSWFRKKHPPAEAPVPIPPSPDTKDRWRSMTVVPYLEDLHGADEDEDLFDIEDDIIYTQDFTVPGQVPEEEASHNGYRRGLPKAVCMNGTEAAQLSTKSRAEGRAPNPARKACSASSKIRRLSACKQQ [Q382Y]	1.28 ± 0.22
MEVVDPQQLGMFTEGELMSVGMDTFIHRIDSTEVIYQPRRKRAKLIGKYLMGDLLGEGSYGKVKEVLDSETLCRRAVKILKKKKLRRIPNGEANVKKEIQLLRRLRHKNVIQLVDVLYNEEKQKMYMVMEYCVCGMQEMLDSVPEKRFPVCQAHGYFCQLIDGLEYLHSQGIVHKDIKPGNLLLTTGGTLKISDLGVAEALHPFAADDTCRTSQGSPAFQPPEIANGLDTFSGFKVDIWSAGVTLYNITTGLYPFEGDNIYKLFENIGKGSYAIPGDCGPPLSDLLKGMLEYEPAKRFSIRQIRQHSWFRKKHPPAEAPVPIPPSPDTKDRWRSMTVVPYLEDLHGADEDEDLFDIEDTIIYTQDFTVPGQVPEEEASHNGQRRGLPKAVCMNGTEAAQLSTKSRAEGRAPNPARKACSASSKIRRLSACKQQ [D359T]	1.57 ± 0.21
MEVVDPQQLGMFTEGELMSVGMDTFIHRIDSTEVIYQPRRKRAKLIGKYLMGDLLGEGSYGKVKEVLDSETLCRRAVKILKKKKLRRIPNGEANVKKEIQLLRRLRHKNVIQLVDVLYNEEKQKMYMVMEYCVCGMQEMLDSVPEKRFPVCQAHGYFCQLIDGLEYLHSQGIVHKDIKPGNLLLTTGGTLKISDLGVAEALHPFAADDTCRTSQGSPAFQPPEIANGLDTFSGFKVDIWSAGVTLYNITTGLYPFEGDNIYKLFENIGKGSYAIPGDCGPPLSDLLKGMLEYEPAKRFSIRQIRQHSWFRKKHPPAEAPVPIPPSPDTKDRWRSMTVVPYLEDLHGADEDEDLFDIEDDIIYTQDFTVPGQVPEEEASHNGQRRGLPKAVCMNHTEAAQLSTKSRAEGRAPNPARKACSASSKIRRLSACKQQ [G394H]	1.6 ± 0.29
